How the values were obtained:
Y39E-α-syn = Y39E-α-syn (UniProt P37840)
full-length α-synuclein = full-length α-synuclein (UniProt P37840); assay: NMR titration; 1H-15N HSQC of 0.3 mM 15N-enriched FL- or CT-α-syn titrated with PDI (mole ratios 10:1 to 1:1, 0-300 μM PDI); 20 mM HEPES, 100 mM NaCl, 5 mM TCEP, pH 7.0, 10% D2O, 15 °C; KD from fits of the average CSPs of residues in segment 1 and in segment 2

Substance	elongation rate constant (k) of aggregation of Y39E-α-syn with PDI, thioflavin T fluorescence (without PDI: ND, plateau was not reached) (Y39E-α-syn)	half-time (t1/2) of aggregation of Y39E-α-syn with PDI, thioflavin T fluorescence (without PDI: ND, plateau was not reached) (Y39E-α-syn)	lag time (tlag) of aggregation of Y39E-α-syn with PDI, thioflavin T fluorescence (without PDI: ND, plateau was not reached) (Y39E-α-syn)	KD of segment 1 (full-length α-synuclein)	KD of segment 2 (full-length α-synuclein)
protein disulfide isomerase (from UniProt P07237 18-508) (enzyme)	0.21	46 h	36 h		
protein disulfide isomerase, P07237 18-508 (enzyme; other documents disagree on this pair)				700 µM	400 µM

From paper PMC9363494
